This note sets out measurements from paper PMC7035975 (Journal of molecular and cellular cardiology, 2019).

This data set deals with the molecule itself. In words: SDS-PAGE and immunoblot of the PLB pentamer.

B1: L31A phospholamban mutant (untagged) (natural protein, human, UniProt P26678 1-52, looked up)
chain: MEKVQYLTRSAIRRASTIEMPQQARQKLQNAFINFCLILICLLLICIIVMLL
Take B1: the “stoichiometry N” value was found to be 5.

A word on the stoichiometry N: it is the number of molecules, sites or subunits per partner or assembly.
